Measurements: patent publication US20070086956A1 (Bayer, published 2007)
Read-outs that look alike come from different tables or passages of the source. Where no end group is shown, it is not given here.

What was measured:
[1] = biological target: T1, bovine pancreatic kallikrein (bovine); assay: enzyme inhibition, bovine pancreatic kallikrein 92.0 pM
T1 construct: also called kallikrein-sepharose

Bovine chymotrypsin [2] = biological target: T2, Bovine chymotrypsin (bovine, UniProt P00766 1-13; P00766 16-146; P00766 149-245); assay: enzyme inhibition, bovine chymotrypsin 5 nM
[3] = biological target: T3, human neutrophil elastase (human, UniProt P08246 30-247, limits assumed); assay: enzyme inhibition, elastase
T3 sequence (looked up): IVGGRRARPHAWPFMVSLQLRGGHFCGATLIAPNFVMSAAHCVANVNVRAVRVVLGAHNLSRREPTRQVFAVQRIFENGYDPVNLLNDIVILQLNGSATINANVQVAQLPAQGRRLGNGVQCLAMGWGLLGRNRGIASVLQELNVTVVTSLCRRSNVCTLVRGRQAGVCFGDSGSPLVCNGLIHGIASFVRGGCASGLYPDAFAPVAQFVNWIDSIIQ
Protocol: (§1) Ki values were determined from Dixon plots of the form 1/V versus performed at two different substrate concentrations (Dixon et al., 1979).

human factor Xa [4] = biological target: T4, human factor Xa (human, UniProt P00742 41-179; P00742 235-488, limits assumed); assay: enzyme inhibition, factor Xa 0.87 nM, substrate LGR-AMC
T4 sequence (P00742 41-179 limits assumed, chain 1 of 2): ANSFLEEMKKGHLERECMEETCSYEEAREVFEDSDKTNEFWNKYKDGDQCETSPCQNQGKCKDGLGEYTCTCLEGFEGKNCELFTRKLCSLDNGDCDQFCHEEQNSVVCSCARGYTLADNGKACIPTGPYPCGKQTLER
T4 sequence (P00742 235-488 limits assumed, chain 2 of 2): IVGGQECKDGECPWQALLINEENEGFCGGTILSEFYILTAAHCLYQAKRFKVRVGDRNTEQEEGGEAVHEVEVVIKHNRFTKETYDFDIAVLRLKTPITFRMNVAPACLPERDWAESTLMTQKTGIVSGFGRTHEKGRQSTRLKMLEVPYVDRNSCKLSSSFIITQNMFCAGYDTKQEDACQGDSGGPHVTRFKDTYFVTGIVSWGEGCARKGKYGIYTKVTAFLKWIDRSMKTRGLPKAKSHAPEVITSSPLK

human tissue kallikrein [5] = biological target: T5, human tissue kallikrein (human, UniProt P06870 25-262); assay: enzyme inhibition, human tissue kallikrein
T5 sequence (P06870 25-262 limits assumed): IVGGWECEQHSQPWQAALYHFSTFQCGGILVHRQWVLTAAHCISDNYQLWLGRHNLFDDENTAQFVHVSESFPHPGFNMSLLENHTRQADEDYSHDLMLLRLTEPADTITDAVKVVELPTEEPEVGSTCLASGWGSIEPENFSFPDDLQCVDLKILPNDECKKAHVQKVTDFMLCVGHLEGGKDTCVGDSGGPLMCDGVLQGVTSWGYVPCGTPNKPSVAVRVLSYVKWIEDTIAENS

Factor XIa [6] = biological target: T6, Factor XIa (human, UniProt P03951 19-625); assay: enzyme inhibition, Factor XIa 0.1 nM
T6 construct: also called FXIa; Human FXIa

Factor XIa [7] = biological target: T6, Factor XIa; assay: enzyme inhibition, factor XIa 0.1 nM, substrate Boc-Glu(OBzl)-Ala-Arg-AMC
human plasmin [8] = biological target: T7, human plasmin (human, UniProt P00747 97-810, limits assumed); assay: enzyme inhibition, human plasmin 50 pM, substrate GPK-AMC
T7 sequence (P00747 97-810 limits assumed): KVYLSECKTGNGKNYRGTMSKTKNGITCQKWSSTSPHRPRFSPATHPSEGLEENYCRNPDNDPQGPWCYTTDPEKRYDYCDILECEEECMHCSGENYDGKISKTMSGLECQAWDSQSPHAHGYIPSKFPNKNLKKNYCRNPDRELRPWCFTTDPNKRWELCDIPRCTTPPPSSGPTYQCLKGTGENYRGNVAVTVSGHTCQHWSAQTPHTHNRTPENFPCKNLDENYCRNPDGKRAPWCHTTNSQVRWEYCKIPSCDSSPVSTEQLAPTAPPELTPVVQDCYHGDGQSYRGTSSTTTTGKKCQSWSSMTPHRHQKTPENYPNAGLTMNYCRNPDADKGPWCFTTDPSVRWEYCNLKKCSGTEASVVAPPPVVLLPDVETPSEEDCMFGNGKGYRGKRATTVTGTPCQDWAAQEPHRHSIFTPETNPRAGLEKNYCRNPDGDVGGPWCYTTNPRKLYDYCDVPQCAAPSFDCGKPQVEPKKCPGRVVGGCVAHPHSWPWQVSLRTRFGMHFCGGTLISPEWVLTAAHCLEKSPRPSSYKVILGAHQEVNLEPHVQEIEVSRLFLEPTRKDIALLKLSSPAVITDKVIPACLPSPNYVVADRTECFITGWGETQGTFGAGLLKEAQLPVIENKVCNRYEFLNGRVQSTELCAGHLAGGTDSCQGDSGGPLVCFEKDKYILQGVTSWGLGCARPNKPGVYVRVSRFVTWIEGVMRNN

human plasmin [9] = biological target: T7, human plasmin; assay: enzyme inhibition, human plasmin 50 pM
Bovine chymotrypsin [10] = biological target: T2, Bovine chymotrypsin; assay: enzyme inhibition, chymotrypsin 5 nM, substrate AAPF-pNA
human plasma kallikrein [11] = biological target: T8, human plasma kallikrein (human, UniProt P03952 20-638); assay: enzyme inhibition, human plasma kallikrein […] nM
T8 sequence (P03952 20-638 limits assumed): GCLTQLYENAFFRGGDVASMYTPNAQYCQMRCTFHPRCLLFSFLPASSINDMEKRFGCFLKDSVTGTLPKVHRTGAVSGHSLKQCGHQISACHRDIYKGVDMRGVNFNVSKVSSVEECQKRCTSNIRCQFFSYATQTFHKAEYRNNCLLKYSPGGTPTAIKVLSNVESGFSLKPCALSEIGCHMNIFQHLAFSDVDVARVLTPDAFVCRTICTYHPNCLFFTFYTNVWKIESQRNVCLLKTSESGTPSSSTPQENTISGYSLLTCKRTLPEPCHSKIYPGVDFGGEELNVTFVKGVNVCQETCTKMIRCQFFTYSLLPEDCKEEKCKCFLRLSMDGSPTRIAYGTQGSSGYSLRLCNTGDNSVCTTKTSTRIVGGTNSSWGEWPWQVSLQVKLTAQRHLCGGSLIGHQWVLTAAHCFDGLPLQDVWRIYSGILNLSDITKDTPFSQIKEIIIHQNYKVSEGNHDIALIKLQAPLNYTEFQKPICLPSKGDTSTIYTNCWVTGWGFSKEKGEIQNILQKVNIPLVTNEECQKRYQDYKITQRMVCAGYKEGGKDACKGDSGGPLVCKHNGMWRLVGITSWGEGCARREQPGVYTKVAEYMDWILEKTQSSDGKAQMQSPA

human plasmin [12] = biological target: T7, human plasmin; assay: enzyme inhibition, human plasmin 50 pM; remark: listed apart in the source
human tissue kallikrein [13] = biological target: T5, human tissue kallikrein; assay: enzyme inhibition, human tissue kallikrein 0.35 nM, substrate PFR-AMC
human urokinase = human urokinase (human, UniProt P00749 21-431, limits assumed); assay: enzyme inhibition, urokinase, substrate GGR-AMC
[14] = biological target: T3, human neutrophil elastase; assay: enzyme inhibition (Dixon plot), human neutrophil elastase 19 nM, substrate AAPM-AMC
Protocol: as §1

human plasma kallikrein [15] = biological target: T8, human plasma kallikrein; assay: enzyme inhibition, plasma kallikrein (apparent Ki)
human plasmin [16] = biological target: T7, human plasmin; assay: enzyme inhibition, human plasmin 50 pM; remark: listed apart in the source
[17] = biological target: T9, bovine trypsin (type III) (bovine, UniProt P00760 24-246); assay: enzyme inhibition, trypsin 48.5 pM
T9 sequence (P00760 24-246): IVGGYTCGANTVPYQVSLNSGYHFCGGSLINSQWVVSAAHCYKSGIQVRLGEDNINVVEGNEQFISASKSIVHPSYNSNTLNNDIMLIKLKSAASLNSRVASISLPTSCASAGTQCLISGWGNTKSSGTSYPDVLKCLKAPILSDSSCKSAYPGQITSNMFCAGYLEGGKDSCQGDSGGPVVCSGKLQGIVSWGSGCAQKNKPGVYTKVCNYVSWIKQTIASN

human plasmin [18] = biological target: T7, human plasmin; assay: enzyme inhibition, human plasmin 50 pM; remark: listed apart in the source
[19] = biological target: T9, bovine trypsin (type III); assay: enzyme inhibition, trypsin 48.5 pM; remark: listed apart in the source
Tissue Factor VIIa = biological target: T10, Tissue Factor VIIa; assay: enzyme inhibition, method not described
T10 construct: also called TF/FVIIa

[20] = biological target: tissue plasminogen activator (tPA), single chain form from human melanoma cell culture (human, UniProt P00750 36-562, limits assumed); assay: enzyme inhibition, tPA 7.5 nM, chromogenic substrate, A405
Sequence of tissue plasminogen activator (tPA), single chain form from human melanoma cell culture (P00750 36-562 limits assumed): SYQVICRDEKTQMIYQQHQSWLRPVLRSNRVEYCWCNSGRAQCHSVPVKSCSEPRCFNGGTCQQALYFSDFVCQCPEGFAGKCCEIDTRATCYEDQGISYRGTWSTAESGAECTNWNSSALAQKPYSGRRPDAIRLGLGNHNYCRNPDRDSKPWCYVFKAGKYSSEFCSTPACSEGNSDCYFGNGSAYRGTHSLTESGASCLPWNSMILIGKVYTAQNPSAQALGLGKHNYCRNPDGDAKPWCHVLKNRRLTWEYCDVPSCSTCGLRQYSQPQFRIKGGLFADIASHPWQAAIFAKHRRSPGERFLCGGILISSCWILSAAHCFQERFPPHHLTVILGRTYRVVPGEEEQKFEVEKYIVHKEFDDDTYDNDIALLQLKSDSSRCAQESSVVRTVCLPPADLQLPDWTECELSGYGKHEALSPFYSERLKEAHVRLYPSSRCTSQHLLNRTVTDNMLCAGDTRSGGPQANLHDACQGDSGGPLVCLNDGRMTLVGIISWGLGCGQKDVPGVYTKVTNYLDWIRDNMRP
Protocol: Inhibition of tissue plasminogen activator (tPA) was also determined as follows: tPA (single chain form from human melanoma cell culture from Sigma Chemical Co, St Louis, Mo.) was pre-incubated with inhibitor for 2 hr at room temperature in 20 mM Tris buffer pH 7.2 containing 150 mM NaCl, and 0.02% sodium azide. […] Formation of p-Nitroaniline was determined from the A405 nm measured following incubation at 37 C for 2 hr.

human plasma kallikrein [21] = biological target: T8, human plasma kallikrein; assay: enzyme inhibition, human plasma kallikrein 2.5 nM
human factor Xa [22] = biological target: T4, human factor Xa; assay: enzyme inhibition, factor Xa 0.87 nM
[23] = biological target: T1, bovine pancreatic kallikrein; assay: enzyme inhibition, bovine pancreatic kallikrein 100 pM
Factor XIa [24] = biological target: T6, Factor XIa; assay: enzyme inhibition, factor XIa 0.1 nM
human tissue kallikrein [25] = biological target: T5, human tissue kallikrein; assay: enzyme inhibition, human tissue kallikrein 0.35 nM, substrate PFR-AMC; remark: listed apart in the source
Factor XIa [26] = biological target: T6, Factor XIa; assay: enzyme inhibition, FXIa 0.1 nM, substrate Boc-Glu(OBzl)-Ala-Arg-AMC
human plasma kallikrein [27] = biological target: T8, human plasma kallikrein; assay: enzyme inhibition, human plasma kallikrein […] nM, substrate PFR-AMC
human tissue kallikrein [28] = biological target: T5, human tissue kallikrein; assay: enzyme inhibition, human tissue kallikrein 0.35 nM, substrate PFR-AMC; remark: listed apart in the source
human plasmin [29] = biological target: T7, human plasmin; assay: enzyme inhibition, human plasmin 50 pM, substrate GPK-AMC; remark: listed apart in the source

B1: synthetic placental bikunin (7-64), first preparation of Example 2 (other)
chain: IHDFCLVSKVVGRCRASMPRWWYNVTDGSCQLFVYGGCDGNSNNYLTKEECLKKCATV
notes: also called placental bikunin fragment (7-64); KID1
Ki [1]: 0.4 nM
Ki (Bovine chymotrypsin [2]): 0.6 nM

B2: synthetic placental bikunin (102-159) (other)
chain: YEEYCTANAVTGPCRASFPRWYFDVERNSCNNFIYGGCRGNKNSYRSEEACMLRCFRQ
modifications: disulfide (positions not given here)
notes: also called KID2
Ki [3]: 323 nM
Ki (human factor Xa [4]): 274 nM
Ki (human tissue kallikrein [5]): 0.13 nM
Ki (Factor XIa [6]): 15 nM
Ki (Factor XIa [7]): 15 nM
Ki (human plasmin [8]): 1.8 nM
Ki (human plasmin [9]): 1.8 nM
Ki (Bovine chymotrypsin [10]): 0.24 nM
Ki (human plasma kallikrein [11]): 0.7 nM
Ki (human plasmin [12]): 1.8 nM
Ki (human tissue kallikrein [13]): 0.13 nM
Ki (Bovine chymotrypsin [2]): 0.2 nM
Ki (human urokinase): 11000 nM
Ki [14]: 323 nM

B3: placental bikunin (102-159) expressed in yeast strain SC101 (recombinant 2.4) and purified (other)
chain: YEEYCTANAVTGPCRASFPRWYFDVERNSCNNFIYGGCRGNKNSYRSEEACMLRCFRQ
notes: also called placental bikunin C-terminal domain
Ki (human plasma kallikrein [15]): 0.35 nM

B4: native human placental bikunin isolated from placenta (other)
chain: ADRERSIHDFCLVSKVVGRCRASMPRWWYNVTDGSCQLFVYGGCDGNSNNYLTKEECLKKCATVTENATGDLATSRNAADSSVPSAPRRQDSEDHSSDMFNYEEYCTANAVTGPCRASFPRWYFDVERNSCNNFIYGGCRGNKNSYRSEEACMLRCFRQQENPPLPLGSK
modifications: Asn 30 silent in sequencing, likely glycosylated
notes: Soluble protein purified from human placenta; A minor species started at residue 6; also called native Placental Bikunin (1-179)
Ki (human plasmin [16]): 1.9 nM
Ki [17]: 0.13 nM

B5: placental bikunin (1-170) derived from a baculovirus/Sf9 expression system (other)
chain: ADRERSIHDFCLVSKVVGRCRASMPRWWYNVTDGSCQLFVYGGCDGNSNNYLTKEECLKKCATVTENATGDLATSRNAADSSVPSAPRRQDSEDHSSDMFNYEEYCTANAVTGPCRASFPRWYFDVERNSCNNFIYGGCRGNKNSYRSEEACMLRCFRQQENPPLPLGSK
notes: Both Kunitz domains, truncated before the transmembrane segment; N-terminus ADRER confirmed, so the signal peptide was removed; also called Recombinant Bikunin; recombinant placental bikunin (1-170)
Ki (human plasmin [18]): 0.23 nM
Ki [19]: 0.064 nM
Ki (Tissue Factor VIIa): 800 nM
Ki [20]: < 60 nM
Ki (human plasma kallikrein [21]): 0.18 nM
Ki (human factor Xa [22]): 180 nM
Ki [23]: 0.12 nM
Ki (Factor XIa [24]): 3 nM
Ki (human tissue kallikrein [25]): 0.04 nM

B6: CHO expressed placental bikunin (1-170) (other)
chain: ADRERSIHDFCLVSKVVGRCRASMPRWWYNVTDGSCQLFVYGGCDGNSNNYLTKEECLKKCATVTENATGDLATSRNAADSSVPSAPRRQDSEDHSSDMFNYEEYCTANAVTGPCRASFPRWYFDVERNSCNNFIYGGCRGNKNSYRSEEACMLRCFRQQENPPLPLGSK
modifications: N-linked carbohydrate at Asn-30 and Asn-61 (so in the source)
notes: Glycosylated isoforms of 21-38 kDa; also called CHO Bikunin (1-170)
Ki (Factor XIa [26]): 1.9 nM
Ki (human plasma kallikrein [27]): 0.5 nM
Ki (human tissue kallikrein [28]): 0.3 nM
Ki (human plasmin [29]): 0.2 nM
